How the values were obtained:
Type in all cases: biochemical
[1] = In vitro transglycosylation at C-20, CK as glycosyl acceptor, UDP-glucose as donor; details: crude enzyme (E. coli lysate supernatant); TLC/HPLC, FIG. 2, 3, 12, 16
Text: (§1) Cell lysate of recombinant E. coli with empty vector pET28a was used as a control.
As shown in FIG. 16: Protopanaxadiol Ginsenoside CK is used as a glycosyl acceptor, and UDP-glucose is used as a glycosyl donor.

[2] = In vitro transglycosylation at C-3, Rh2 as glycosyl acceptor, UDP-glucose as donor; details: crude enzyme (E. coli lysate supernatant); TLC, FIG. 13, FIG. 15
Text: as §1

[3] = In vitro transglycosylation at C-20, Rd as glycosyl acceptor, UDP-glucose as donor; details: crude enzyme (E. coli lysate supernatant); TLC/HPLC, FIG. 2, 3, 11
Text: as §1

Row | Molecule | product formation from CK and UDP-glucose (Gypenoside LXXV) [1] | product formation from Rh2 and UDP-glucose (Rg3) [2] | product formation from Rd and UDP-glucose (Rb1) [3]
1 | GT29-45: Ginseng UDP-glycosyltransferase, 448 amino acids, SEQ ID NO.: 98 (protein, Panax ginseng) MDIEKGRISIVMLPFLAHGHISPFFELAKHLSKRNCNIFLCSTPINLSSIKNRVSDKDSSASIKLVELHLPSSPDLPPHYHTTNGLPSHLMVPLRNAFETAAPTFSEILKTLNPDLLIYDFNPSWAPEIASSHNIPAVYFLTSAAATSSMGLHAFKNSGEKYPFPDFYDNSNITPEPPSADKMKLFHDFVACFKRSCDIILIKSFRELEGKYIDFLSTLSKKTLVPVGPLVQDPMGHDEDPKTGHLINWLDKRAESTVVFVCFGSEYFPSNEELEELAIGLEISMVSFILAVRFPEGEKKGILPEGFVQRVGDRGLVVEGWAPQARILGHSSTGGFVSHCGWSSIMESVKFGVPVIAMARHLDQPLNAKLAAEVGVGMEVMRDENGKYKREAIAEVIRKVVMEKNGEVMRRKARELSEKMKVKGEQEIGRAVEELVQICKKKKQHAQY | can catalyze the C-20 glycosyl of CK to extend a glucosyl to produce Gypenoside LXXV | can all catalyze the extension of a glucosyl at the C-3 glycosyl of Rh2 to generate Rg3 | 
2 | GT29-46: Ginseng UDP-glycosyltransferase, 442 amino acids, SEQ ID NO.: 100 (protein, primer) MDNQEGRISIALLPFLAHGHISPFFELAKQLAKRNCNVFLCSTPINLSSIKNKDSSASIKLVELHLPSSPDLPPHYHTTNGLPSHLMVPLINAFETAGPTFSEILKTLNPDLLIYDFNPSWAPEIASSHNIPAVYFLTTAAASSSIGLHAFKNPGEKYPFPDFYDNSNNTPEPPSADNMKLLHDFIACFERSCDIILIKSFIELEGKYIDLLSTLSDKTLVPVGPLVQDPMGHNEDPKTEQIINWLDKRAESTVVFVYFGSEYFLSNEELEEVAIGLEISMVNFIWAVRLIEGEKKGVLPEGFVQRVGDRGLVVEGWAPQARILGHSSTGGFVSHCGWSSIAESMKFGVPVIAMARHLDQPLNGKLAAEVGVGMEVVRDENGKYKREGIAEVIRKVVVEKSGEVMRRKARELSEKMKEKGEEEIDRAVEELVQICKKKKDAQ | can catalyze the C-20 glycosyl of CK to extend a glucosyl to produce Gypenoside LXXV | can all catalyze the extension of a glucosyl at the C-3 glycosyl of Rh2 to generate Rg3 | 
3 | PNUGT29-2: Panax notoginseng glycosyltransferase, 442 amino acids, SEQ ID NO: 41 (protein, Panax notoginseng) MDNQKGRISIALLPFLAHGHISPFFELAKQLAKRNCNVFLCSTPINLSSIKNKDSSASVKLVELHLPSSPDLPPHYHTTNGLPSHLMVPLRNAFETVGPTFSEILKTLNPDLLIYDFNPSWAPEIASSHNIPAVYFLTTAAASSSIGLHAFKNPGEKYPFPDFYDNSNITPEPPSADNMKLLHDFIACFERSCDIILIKSFRELEGKYIDLLSTLSDKTLVPVGPLVQDPMGHNEDPKTEQIINWLDKRAESTVVFVCFGSEYFLSNEELEEVAIGLEISMVNFIWAVRLIEGEKKGVLPEGFVQRVGDRGLVVEGWAPQARILGHSSTGGFVSHCGWSSIAESMRFGVPVIAMARHLDQPLNAKLAAEVGVGMEVVRDDNGKYKREGIAEVIRKVVVEKSGEVIRRKARELSEKMKEKGEQEIDRAVEELVQICKKKKDAQ | can catalyze the extension of a glucosyl at the C-20 glycosyl to generate Gypenoside LXXV | can catalyze the extension of a glucosyl at the C-3 glycosyl of Rh2 to generate Rg3 | can catalyze the extension of a glucosyl at the C-20 glycosyl of Rd to generate Rb1
4 | PNUGT29-14: Panax notoginseng glycosyltransferase, 447 amino acids, SEQ ID NO: 57 (protein, Panax notoginseng) MYIEKGRISIVMLPFLAHGHISPFFELAKHLSKRNCNIFLCSTPINLSSIKNRVSDKDSSASIKLVELHLPSSPDLPPQYHTTNGLPSHLMVPLKNAFETVGPTFSEILKTLDPDLLIYDFNPSWAPEIALSHNIPAVYFLTSAAATSSVALRALKNPGEKYPFPDFYDNSNITPEPPSADKMKLFHDFVACFKRSCDIILIKSFRELEGKYIDLLSTLSKKTLVPVGPLVQDPLGHDEDPKTGHLINWLDKRAESTVVFVCFGSEYFPSNEELEEVAIGLEISMVNFILAVRFLEGEKKGVLPEGFVQRVGDRGLVVEGWAPQARILGHSSTGGFVSHCGWSSIMESVKFGVPVIAMARHLDQPLNAKLAAEVGVGMEVVRDENGKYKREAIAEVIRKVVMEKNGEVIRRKARELSEKMKETGEQEIGRAVEELVQICKMKKDAQY | can catalyze the extension of a glucosyl at the C-20 glycosyl to generate Gypenoside LXXV | can catalyze the extension of a glucosyl at the C-3 glycosyl of Rh2 to generate Rg3 | can catalyze the extension of a glucosyl at the C-20 glycosyl of Rd to generate Rb1
5 | PNUGT29-15: Panax notoginseng glycosyltransferase, 447 amino acids, SEQ ID NO: 59 (protein, Panax notoginseng) MDIEKGRISIVMLPFLAHGHISPFFELAKHLSKRNCNIFLCSTPINLSSIKNRVSDKDSSASIKLVELHLPSSPDLPPQYHTTNGLPSHLMVPLKNAFETVGPTFSEILKTLDPDLLIYDFNPSWAPEIALSHNIPAVYFLTSAAATSSVALRALKNPGEKYPFPDFYDNSNITPEPPSADKMKLFHDFVACFKRSCDIILIKSFRELEGKYIDLLSTLSKKTLVPVGPLVQDHLGHDEDPKTGHLINWLDKRAESTVVFVCFGSEYFPSNEELEEVAIGLEISMVNFILAVRFLEGEKKGVLPEGFVQRVGDRGLVVEGWAPQARILGHSSTGGFVSHCGWSSIMESVKFGVPVIAMARHLDQPLNAKLAAEVGVGMEVVRDENGKYTREAIAEVIRKVVMEKNGEVIRRKARELSDKMKEKGEQEIGRAVEELVQICKMKKDAQY | can catalyze the extension of a glucosyl at the C-20 glycosyl to generate Gypenoside LXXV | can catalyze the extension of a glucosyl at the C-3 glycosyl of Rh2 to generate Rg3 | can catalyze the extension of a glucosyl at the C-20 glycosyl of Rd to generate Rb1
6 | PNUGT29-4: Panax notoginseng glycosyltransferase, 447 amino acids, SEQ ID NO: 45 (protein, Panax notoginseng) MDIEKGRISIVMLPFLAHGHISPFFELAKHLSKRNCNIFLCSTPINLSSIKNRVSDKDSSASIKLVELHLPSSPDLPPQYHTTNGLPSHLMVPLKNAFETVGPTFSEILKTLDPDLLIYDFNPSWAPEIALSHNIPAVYFLTSAAATSSVALRALKNPGEKYPFPDFYDNSNITPEPPSADKMKLFHDFVACFKRSCDIILIKSFRELEGKYIDLLSTLSKKTLVPVGPLVQDPLGHDEDPKTGHLINWLDKRAESTVVFVCFGSEYFPSNEELEEVAIGLEISMVNFILAVRFLEGEKKGVLPEGFVQRVGDRGLVVEGWAPQARILGHSSTGGFVSHCGWSSIMESVKFGVPVIAMARHLDQPLNAKLAAEVGVGMEVVRDENGKYTREAIAEVIRKVVMEKNGEVIRRKARELSDKMKEKGEQEIGRAVEELVQICKMKKDAQY | can catalyze the extension of a glucosyl at the C-20 glycosyl to generate Gypenoside LXXV | can catalyze the extension of a glucosyl at the C-3 glycosyl of Rh2 to generate Rg3 | can catalyze the extension of a glucosyl at the C-20 glycosyl of Rd to generate Rb1
7 | PNUGT29-3: Panax notoginseng glycosyltransferase, 447 amino acids, SEQ ID NO: 43 (protein) MDIEKGRISIVMLPFLAHGHISPFFELAKHLSKRNCNIFLCSTPINLSSIKNRVSDKDSSASIKLVELHLPSSPDLPPQYHTTNGLPSHLMVPLKNAFETVGPTFSEILKTLDPDLLIYDFNPSWAPEIALSHNIPAVYFLTSAAATSSVALRALKNPGEKYPFPDFYDNSNITPEPPSADKMKLFHDFVACFKRSCDIILIKSFRELEGKYIDLLSTLSKKTLVPVGPLVQDPLGHDEDPKTGHLINWLDKRAESTVVFVCFGSEYFPSNEELEEVAIGLEISMVNFILAVRFLEGEKKGVLPEGFVQRVGDRGLVVEGWAPQARILGHSSTGGFVSHCGWSSIMESVKFGVPVIAMARHLDQPLNAKLAAEVGVGMEVVRDENGKYKREAIAEVIRKVVMEKNGEVIRRKARELSEKMKETGEQEIGRAVEELVQICKMKKDAQY | can catalyze the extension of a glucosyl at the C-20 glycosyl to generate Gypenoside LXXV | can catalyze the extension of a glucosyl at the C-3 glycosyl of Rh2 to generate Rg3 | can catalyze the extension of a glucosyl at the C-20 glycosyl of Rd to generate Rb1
8 | PNUGT29-1: Panax notoginseng glycosyltransferase, 447 amino acids, SEQ ID NO: 39 (protein, Panax notoginseng) MDIEKGRISIVMLPFLAHGHISPFFELAKHLSKRNCNIFLCSTPINLSSIKSRVSDKDSSASIKLVELHLPSSPDLPPQYHTTNGLPSHLMVPLKNAFETVGPTFSEILKTLDPDLLIYDFNPSWAPEIALSHNIPAVYFLTSAAATSSVALRALKNPGEKYPFPDFYDNSNITPEPPSADKMKLFHDFVACFKRSCDIILIKSFRELEGKYIDLLSTLSKKTLVPVGPLVQDPLGHDEDPKTGHLINWLDKRAESTVVFVCFGSEYFPSNEELEEVAIGLEISMVNFILAVRFLEGEKKGVLPEGFVQRVGDRGLVVEGWAPQARILGHSSTGGFVSHCGWSSIMESVKFGVPVIAMARHLDQPLNAKLAAEVGVGMEVVRDENGKYTREAIAEVIRKVVMEKNGEVIRRKARELSDKMKEKGEQEIGRAVEELVQICKMKKDAQY | can catalyze the extension of a glucosyl at the C-20 glycosyl to generate Gypenoside LXXV | can catalyze the extension of a glucosyl at the C-3 glycosyl of Rh2 to generate Rg3 | can catalyze the extension of a glucosyl at the C-20 glycosyl of Rd to generate Rb1
